Reference: the supplement of paper PMC7877785
± gives the uncertainty stated by the source.

Assay: self-splicing fitness, log relative to wild type (ln ratio); higher = more splicing; Tetrahymena group I intron in knt gene, E. coli kanamycin selection, DiMSum; sequences stand for … in CUCUCU…GGAGGGAAAAGUUAUCAGGCAUGCACCUGGUAGCUAGUCUUUAAACCAAUAGAUUGCAUCGGUUUAAAAGGCAAGACCGUCAAAUUGCGGGAAAGGGGUCAACAGCCGUUCAGUACCAAGUCUCAGGGGAAACUUUGAGAUGGCCUUGCAAAGGGUAUGGUAAUAAGCUGACGGACAUGGUCCUAACCACGCAGCCAAGUCCUAAGUCAACAGAUCUUCUGUUGAUAUGGAUGCAGUUCACAGACUAAAUGUCGGUCGGGGAAGAUGUAUUCUUCUCAUAAGAUAUAGUCGGACCUCUCCUUAAUGGGAGCUAGCGGAUGAAGUGAUGCAACACUGGAGCCGCUGGGAACUAAUUUGUAUGCGAAAGUAUAUUGAUUAGUUUUGGAGUACUCGUGGUCG
Summary of the method: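 Fitness was computed with DiMSum as the error-weighted combination of replicate fold changes, kanamycin versus none, each normalised to wild type. The library randomised all eight intron nucleotides of the P1ex region, with the intron placed in the knt kanamycin-resistance gene on pET-22b(+) in E. coli BL21(DE3). Six replicate transformations were grown overnight at 37°C or 30°C on LB agar with or without 25 μg/mL kanamycin, plus 100 μg/mL carbenicillin, 50 μM IPTG and 0.2% rhamnose. Pooled colonies were amplicon-sequenced on an Illumina HiSeq 2500.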

Sequence | self-splicing fitness (ln) (30 °C) | self-splicing fitness (ln) (37 °C)
ACUGAGCAAUAUUACGGAAA | -2.92 ± 0.27 | -2.61 ± 0.28
GUCCAGCAAUAUUACGAGCA | -0.945 ± 0.12 | -1.08 ± 0.15
GGAUAGCAAUAUUACGGGUA | -2.41 ± 0.16 | 0.0404 ± 0.13
CCAGAGCAAUAUUACGCCCG | -2.01 ± 0.26 | -1.17 ± 0.37
AGUGAGCAAUAUUACGUCGG | -3.07 ± 0.31 | -1.97 ± 0.36
AAUUAGCAAUAUUACGUUUG | -3.16 ± 0.22 | -2.9 ± 0.27
UAUUAGCAAUAUUACGAACC | -0.688 ± 0.36 | –
GUGAAGCAAUAUUACGAGCC | – | -2.76 ± 0.48
CAGAAGCAAUAUUACGGCUA | 0.172 ± 0.11 | -0.0647 ± 0.084
AACAAGCAAUAUUACGAUCC | -1.13 ± 0.077 | 0.0585 ± 0.1
GACCAGCAAUAUUACGACUC | -0.264 ± 0.06 | 0.162 ± 0.077
CACUAGCAAUAUUACGGGUC | -2.36 ± 0.14 | -2.27 ± 0.2
GGGUAGCAAUAUUACGGUUA | -1.43 ± 0.14 | -0.344 ± 0.12
AACGAGCAAUAUUACGUGUC | -2.08 ± 0.11 | -2.17 ± 0.23
CUAAAGCAAUAUUACGUUCG | 0.342 ± 0.064 | 0.478 ± 0.082
UCUAAGCAAUAUUACGGCUA | -1.86 ± 0.27 | -3.14 ± 0.47
UAGUAGCAAUAUUACGCCAC | – | -1.56 ± 0.4
CCAGAGCAAUAUUACGGUCU | -4.02 ± 0.18 | -2.31 ± 0.23
CGAGAGCAAUAUUACGGAUG | -3.42 ± 0.33 | -1.83 ± 0.28
UCCGAGCAAUAUUACGCUGG | -3.33 ± 0.21 | -1.56 ± 0.19
AGCCAGCAAUAUUACGGGUU | -3.25 ± 0.15 | -3.81 ± 0.25
UGUUAGCAAUAUUACGCAGG | -3.96 ± 0.35 | -2.96 ± 0.25
UUAUAGCAAUAUUACGAGUG | -1.06 ± 0.11 | -1.32 ± 0.2
CGCUAGCAAUAUUACGUUGC | -3.3 ± 0.33 | -2.98 ± 0.29
CCCGAGCAAUAUUACGAUGC | -4.29 ± 0.46 | -2.52 ± 0.38

Sequence | self-splicing fitness (ln) (30 °C) | self-splicing fitness (ln) (37 °C)
GAGCAGCAAUAUUACGUCAU | -2.38 ± 0.12 | -1.02 ± 0.13
ACGAAGCAAUAUUACGCCUA | -1.93 ± 0.15 | -1.1 ± 0.12
CCCGAGCAAUAUUACGAUUA | -3.04 ± 0.24 | -2.4 ± 0.21
UUUAAGCAAUAUUACGCCUA | -1.34 ± 0.21 | 0.351 ± 0.21
AGCCAGCAAUAUUACGCGCG | -1.15 ± 0.075 | -0.281 ± 0.076
GAGGAGCAAUAUUACGAGAU | -2.78 ± 0.32 | –
GCUUAGCAAUAUUACGCCCA | -1.96 ± 0.24 | -0.0842 ± 0.23
AUAGAGCAAUAUUACGGGGU | -3.46 ± 0.21 | -3.53 ± 0.23
AGGUAGCAAUAUUACGAGGU | -3.749 ± 0.029 | -2.49 ± 0.039
CUACAGCAAUAUUACGUUGG | -3.51 ± 0.15 | -2.45 ± 0.14
AGACAGCAAUAUUACGGAUG | -2.81 ± 0.11 | -2.38 ± 0.17
AGCGAGCAAUAUUACGUGCA | -1.78 ± 0.14 | -1.21 ± 0.14
UCAGAGCAAUAUUACGAAUU | – | -2.24 ± 0.37
AGCUAGCAAUAUUACGUCAC | – | -2.69 ± 0.29
UAUCAGCAAUAUUACGUGAA | -0.844 ± 0.083 | 0.371 ± 0.11
CUCAAGCAAUAUUACGCAAC | -2.65 ± 0.36 | –
AGUAAGCAAUAUUACGAGUA | -2.91 ± 0.26 | -0.922 ± 0.16
UGGUAGCAAUAUUACGUCUU | -0.526 ± 0.12 | 0.37 ± 0.13
UCCCAGCAAUAUUACGGGAA | -3.21 ± 0.2 | -1.83 ± 0.14
GCUGAGCAAUAUUACGAGGA | -2.31 ± 0.16 | -2.48 ± 0.18
GUAGAGCAAUAUUACGGUUG | -2.62 ± 0.15 | -1.13 ± 0.22
GCGUAGCAAUAUUACGGUUG | -2.96 ± 0.13 | -1.75 ± 0.14
GCACAGCAAUAUUACGUUGC | -3.95 ± 0.17 | -2.57 ± 0.17
UGCAAGCAAUAUUACGGACA | -0.633 ± 0.12 | -0.0695 ± 0.16
AACUAGCAAUAUUACGAGCC | -0.792 ± 0.47 | -1.17 ± 0.34
